# In article PMC3817407:
# T1: ECF33_423
# T1 chain: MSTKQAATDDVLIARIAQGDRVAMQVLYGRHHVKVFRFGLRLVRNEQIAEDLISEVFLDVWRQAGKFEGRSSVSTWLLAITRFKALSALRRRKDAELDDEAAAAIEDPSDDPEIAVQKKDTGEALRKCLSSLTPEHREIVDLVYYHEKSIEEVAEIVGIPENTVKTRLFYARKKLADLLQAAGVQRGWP
# T2: ECF28_1088
# T2 chain: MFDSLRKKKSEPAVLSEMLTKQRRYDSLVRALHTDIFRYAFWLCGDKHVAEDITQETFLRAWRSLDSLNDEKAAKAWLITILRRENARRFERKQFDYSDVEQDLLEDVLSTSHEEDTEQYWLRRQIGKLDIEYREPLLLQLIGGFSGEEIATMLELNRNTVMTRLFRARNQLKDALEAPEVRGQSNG
# T3: ECF27_4265
# T3 chain: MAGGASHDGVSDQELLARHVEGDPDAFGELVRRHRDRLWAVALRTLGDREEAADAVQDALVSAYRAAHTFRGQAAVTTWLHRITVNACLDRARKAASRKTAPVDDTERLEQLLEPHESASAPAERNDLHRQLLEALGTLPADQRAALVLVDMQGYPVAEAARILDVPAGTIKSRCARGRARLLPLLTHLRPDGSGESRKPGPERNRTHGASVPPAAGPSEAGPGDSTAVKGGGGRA
# T4: ECF17_1458
# T4 chain: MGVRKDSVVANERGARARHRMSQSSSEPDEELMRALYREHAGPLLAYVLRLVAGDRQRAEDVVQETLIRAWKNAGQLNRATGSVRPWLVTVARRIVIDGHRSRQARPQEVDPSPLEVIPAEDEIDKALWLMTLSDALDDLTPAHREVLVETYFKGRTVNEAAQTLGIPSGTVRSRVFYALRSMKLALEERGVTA
# T5: ECF31_34
# T5 chain: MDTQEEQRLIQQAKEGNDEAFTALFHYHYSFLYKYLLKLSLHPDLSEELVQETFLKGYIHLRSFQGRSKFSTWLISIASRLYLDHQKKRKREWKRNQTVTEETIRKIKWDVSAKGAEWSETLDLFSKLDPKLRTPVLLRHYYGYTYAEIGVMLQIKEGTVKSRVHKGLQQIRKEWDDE
# T6: ECF14_1324
# T6 chain: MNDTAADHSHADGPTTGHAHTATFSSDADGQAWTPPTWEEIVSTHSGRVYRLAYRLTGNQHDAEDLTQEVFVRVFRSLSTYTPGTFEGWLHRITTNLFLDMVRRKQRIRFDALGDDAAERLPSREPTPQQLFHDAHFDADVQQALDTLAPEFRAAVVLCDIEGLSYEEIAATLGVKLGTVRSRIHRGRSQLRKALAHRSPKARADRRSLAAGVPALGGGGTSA
# T7: ECF02_2817
# T7 chain: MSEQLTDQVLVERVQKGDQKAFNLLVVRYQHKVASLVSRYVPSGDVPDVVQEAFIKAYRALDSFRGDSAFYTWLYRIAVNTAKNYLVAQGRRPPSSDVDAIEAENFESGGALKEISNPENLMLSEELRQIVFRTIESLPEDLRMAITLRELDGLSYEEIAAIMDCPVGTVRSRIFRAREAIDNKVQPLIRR
# T8: ECF16_973
# T8 chain: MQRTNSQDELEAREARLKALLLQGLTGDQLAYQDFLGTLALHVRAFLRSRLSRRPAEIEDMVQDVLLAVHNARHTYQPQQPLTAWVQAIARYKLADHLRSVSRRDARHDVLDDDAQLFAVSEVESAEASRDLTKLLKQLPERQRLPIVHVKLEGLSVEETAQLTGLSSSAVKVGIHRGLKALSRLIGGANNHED
# T9: ECF22_1147
# T9 chain: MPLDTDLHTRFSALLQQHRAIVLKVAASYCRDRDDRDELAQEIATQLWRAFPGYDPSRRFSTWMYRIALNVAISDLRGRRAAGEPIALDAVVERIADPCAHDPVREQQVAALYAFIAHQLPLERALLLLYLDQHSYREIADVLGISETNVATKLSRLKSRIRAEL
# T10: ECF04_1609
# T10 chain: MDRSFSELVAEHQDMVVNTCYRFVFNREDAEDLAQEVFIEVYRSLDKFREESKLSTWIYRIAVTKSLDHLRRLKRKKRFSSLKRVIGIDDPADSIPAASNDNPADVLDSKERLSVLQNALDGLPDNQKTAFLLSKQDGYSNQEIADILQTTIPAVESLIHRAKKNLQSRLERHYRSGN
# T11: ECF03_1198
# T11 chain: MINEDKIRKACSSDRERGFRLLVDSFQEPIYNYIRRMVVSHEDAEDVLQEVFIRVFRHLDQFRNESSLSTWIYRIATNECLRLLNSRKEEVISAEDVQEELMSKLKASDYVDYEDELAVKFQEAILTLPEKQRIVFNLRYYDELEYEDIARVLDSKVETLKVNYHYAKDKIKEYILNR
# T12: ECF11_3726
# T12 chain: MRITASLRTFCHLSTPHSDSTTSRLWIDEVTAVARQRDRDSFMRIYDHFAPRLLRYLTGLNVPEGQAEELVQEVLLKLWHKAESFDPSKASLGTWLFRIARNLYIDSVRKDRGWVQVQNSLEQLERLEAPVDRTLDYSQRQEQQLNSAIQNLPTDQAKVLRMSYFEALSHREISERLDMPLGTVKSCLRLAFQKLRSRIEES
# T13: ECF12_807
# T13 chain: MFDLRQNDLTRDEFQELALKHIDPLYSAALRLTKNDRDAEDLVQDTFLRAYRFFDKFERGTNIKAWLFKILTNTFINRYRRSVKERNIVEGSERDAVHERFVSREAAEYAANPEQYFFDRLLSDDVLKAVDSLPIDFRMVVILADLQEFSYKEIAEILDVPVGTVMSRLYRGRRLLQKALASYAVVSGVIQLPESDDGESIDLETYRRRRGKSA
# T14: ECF20_992
# T14 chain: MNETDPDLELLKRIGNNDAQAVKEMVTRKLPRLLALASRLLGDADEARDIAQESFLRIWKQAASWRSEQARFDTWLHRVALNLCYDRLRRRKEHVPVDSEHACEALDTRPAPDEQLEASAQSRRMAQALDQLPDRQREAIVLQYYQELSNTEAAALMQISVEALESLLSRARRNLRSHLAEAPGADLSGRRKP
# Tests used:
# ECF33_423 = biological target: T1, ECF33_423
# ECF28_1088 = biological target: T2, ECF28_1088
# ECF27_4265 = biological target: T3, ECF27_4265
# ECF17_1458 = biological target: T4, ECF17_1458
# ECF31_34 = biological target: T5, ECF31_34
# ECF14_1324 = biological target: T6, ECF14_1324
# ECF02_2817 = biological target: T7, ECF02_2817
# ECF16_973 = biological target: T8, ECF16_973
# ECF22_1147 = biological target: T9, ECF22_1147
# ECF04_1609 = biological target: T10, ECF04_1609
# ECF03_1198 = biological target: T11, ECF03_1198
# ECF11_3726 = biological target: T12, ECF11_3726
# ECF12_807 = biological target: T13, ECF12_807
# ECF20_992 = biological target: T14, ECF20_992
Binder,fold repression (ECF33_423),fold repression (ECF28_1088),fold repression (ECF27_4265),fold repression (ECF17_1458),fold repression (ECF31_34),fold repression (ECF26_4464),fold repression (ECF14_1324),fold repression (ECF02_2817),fold repression (ECF16_973),fold repression (ECF22_1147),fold repression (ECF04_1609),fold repression (ECF03_1198),fold repression (ECF11_3726),fold repression (ECF12_807),fold repression (ECF20_992)
AS22_1147 (protein) MELDDIAVAWRSLEQRLDQHAALAGQVLGDLRSHAARAHLRPLWLSQSAQLLCAIALSGLVAHSWLAFPEQAAAIVGGVLLQIWCVALAASAARQLWLLSQLDFARPLLQTQRALAQLRRWRTRVAPWLGVAFWVLWVAVADAAWRALTGRSLPYAWLLCNLLVGVLGGIGTWLGYRRLQRSGHPWLERLDTVHAGRSVARTETLLEQIARFQRE,1.76,2.19,1.86,2.2,2.31,3.82,4.18,2.38,2.57,6.19,3.52,2.82,3.72,3.45,2.35
AS22_4450 (protein) MELDDMKHAWQTLEQRLDQQAAQTGQLLGVVHEETVRSSLRPLWVAQTAQLLCALALAIVSARSWIPHTDQPVAVIGGVLLQAWCMALAISAMVQLQLLTQFNVAGPLLRTQHALARLRRWRTRVAPWLGVAFWVLWIAVADALWRALTGQTLPTDWLVLNLLVGVAGGIGTWLGFRRLQRAQHPWLERIDRAHAGTGVIRAERMLEEIARFQRD,1.24,1.18,1.4,1.23,1.48,2.51,2.85,1.98,1.71,5.73,1.43,2.46,1.93,1.67,1.54
AS25_1643_cl43 (protein) MTTDSNFNDPCRRQFSRDLPQKMARHTNEATGAMDMVKRDRFELLSAYLGGEVTAAERRQVEDWPANDVAVQRLYSRLLKLRQGIRTMPIPTAQQSPETTAEQVFAKVNRRSRLAWKLGGAAVAACVIGAVTNWLPGRQTGIPQLAQQPQEQPTQAVTTPDALPMIALNNPVIEIPKAAVASPTKFIQPQPQLGEIPPDIN,1.23,1.48,0.954,2.2,1.58,6.66,1.77,4.05,1.22,5.45,2.44,1.92,4.29,4.23,1.99
AS25_1645 (protein) MNESFSQRQTDGDRRRGGDLEMKKNHTSHQHHTDSETPMGHNFEQFQRLSAYFDGEATPAERKEIQHLLDTDPQVKQQYQQLRQLKQALQLLPIPTSISAQYLGQRVLARLRRSQLRTLSLWGSGAIAALFVAGVMGQMPRLNFDRFAKNDPDQQPTAALVETSPQGEEALVVALNRPVLQIPKLATTESP,4.92,3.89,24.5,7.18,5.66,15.3,18.7,9.88,5.41,7.04,6.4,7.37,13.1,9.09,5.73
AS27_1331 (protein) MSAADKDPDKHSADADPPLTVELLADLQAGLLDDATAARIRSRVRSDPQAQQILRALNRVRRDVAAMGADPAWGPAARPAVVDSISAALRSARPNSSPGAAHAARPHVHPVRMIAGAAGLCAVATAIGVGAVVDAPPPAPSAPTTAQHITVSKPAPVIPLSRPQVLDLLHHTPDYGPPGGPLGDPSRRTSCLSGLGYPASTPVLGAQPIDIDARPAVLLVIPADTPDKLAVFAVAPHCSAADTGLLASTVVPRA,5.1,1.37,5.34,2.79,5.7,3.61,5.93,2.82,5.57,2.2,5.65,3.98,5.02,2.07,6.81
AS27_4265 (protein) MTGHPDVAEIADLAEGLLPTTRTTEVRQHLESCELCADVYASLTEIQGLLGTLPAPAPMPDDVAARIDAALAAEPPLGIADGTRVSRETSTPADRPAGHARPSSTGPGRKDRRRGGRRRIAVLGAVAAAAAIGIGSVVVSSLTEDSSSGNTAREQQTAIADTFSEGRLKDRVTNLVADGSAENGSRTPRSFGMESENGGETAENHVFKQPTVPECIRKGIGRDDAVIATEPGVYKGREALLVVLPDATNDTQVTAYIVETACVDQPAVGKAKILLEHSYARS,1.63,2.14,152,2.47,1.67,5.53,3.08,1.4,1.77,8.51,2.44,2.19,7.03,8.59,15.2
